Results from PMC6499816 (2019).
Where two headings read alike, the source gives them in different places. Ends that are not written are not given here.

B1: LC3C (recombinant, BLI) (natural protein)
chain: MPPPQKIPSVRPFKQRKSLAIRQEEVAGIRAKFPNKIPVVVERYPRETFLPPLDKTKFLVPQELTMTQFLSIIRSRMVLRATEAFYLLVNNKSLVSMSATMAEIYRDYKDEDGFVYMTYASQETFG
B2: ULK1 LIR peptide (biotinylated, BLI) (peptide)
chain: SKDSSCDTDDFVMVPAQFPGDLVA
modifications: also: biotin, position not given here
B3: p62 LIR peptide (biotinylated, BLI) (peptide)
chain: SDNCSGGDDDWTHLSSKEVDPSTG
modifications: also: biotin, position not given here
B4: PCM1 LIR peptide (biotinylated, BLI) (peptide)
chain: NISQKSDEEDFVKVEDLPLKLTIY
modifications: also: biotin, position not given here
B5: ATG13 LIR peptide (biotinylated, BLI) (peptide)
chain: GGSSGNTHDDFVMIDFKPAFSKDD
modifications: also: biotin, position not given here
B6: PCM1 V1956D LIR peptide (peptide)
chain: NISQKSDEEDFDKVEDLPLKLTIY
modifications: also: biotin, position not given here
B7: PCM1 V1958I LIR peptide (peptide)
chain: NISQKSDEEDFVKIEDLPLKLTIY
modifications: also: biotin, position not given here
B8: FIP200 LIR peptide (biotinylated, BLI) (peptide)
chain: PDSIDAHTFDFETIPHPNIEQTIH
modifications: also: biotin, position not given here
B9: FYCO1 WT LIR peptide (peptide)
chain: TDYRPPDDAVFDIITDEELCQIQE
modifications: 24-mer limits inferred: 10 residues on each side of the core FDII (1280-1283), as in the arrays; exact peptide is in Supplementary Table 2. N- or C-terminal biotin if used in BLI, cellulose-bound if in the array
B10: PCM1 E1959T LIR peptide (BLI) (peptide)
chain: NISQKSDEEDFVKVTDLPLKLTIY
modifications: also: biotin, position not given here
B11: PCM1 K1957I LIR peptide (BLI) (peptide)
chain: NISQKSDEEDFVIVEDLPLKLTIY
modifications: also: biotin, position not given here
B12: PCM1 FDII LIR peptide (BLI) (peptide)
chain: NISQKSDEEDFDIIEDLPLKLTIY
modifications: also: biotin, position not given here
B13: FYCO1 WT LIR peptide (peptide)
chain: TDYRPPDDAVFDIITDEELCQIQE

Legend:
Assay in all cases: BLI
[1] = biological target: PCM1 LIR peptide mutated at P1962 (X7) (BLI) (UniProt Q15154, biotin (position not given))
LC3A (recombinant, BLI) [2] = biological target: T1, LC3A (recombinant, BLI) (human, UniProt Q9H492 1-121)
[3] = biological target: T2, GABARAP-L2 (recombinant, BLI) (human, UniProt P60520 1-117)
T2 sequence (P60520 whole entry): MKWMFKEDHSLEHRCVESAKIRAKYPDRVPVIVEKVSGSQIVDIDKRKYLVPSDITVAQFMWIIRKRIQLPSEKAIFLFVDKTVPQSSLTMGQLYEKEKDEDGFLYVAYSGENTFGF

LC3C (recombinant, BLI) [4] = biological target: B1
[5] = biological target: GABARAP K24Q/Y25H/R28K (recombinant, BLI) (human, UniProt O95166 1-117, K24Q | Y25H | R28K)
[6] = biological target: GABARAP F62K (recombinant, BLI) (human, UniProt O95166 1-117, F62K)
[7] = biological target: GABARAP K24Q (recombinant, BLI) (human, UniProt O95166 1-117, K24Q)
[8] = biological target: GABARAP Y25H (recombinant, BLI) (human, UniProt O95166 1-117, Y25H)
[9] = biological target: GABARAP Q59E (recombinant, BLI) (human, UniProt O95166 1-117, Q59E)
[10] = biological target: LC3B Q26K/H27Y/K30R (recombinant, BLI) (human, UniProt Q9GZQ8 1-120, Q26K | H27Y | K30R)
[11] = biological target: LC3B Q26K/H27Y/E62Q (recombinant, BLI) (human, UniProt Q9GZQ8 1-120, Q26K | H27Y | E62Q)
[12] = biological target: GABARAP R28K (recombinant, BLI) (human, UniProt O95166 1-117, R28K)
[13] = biological target: GABARAP L55V (recombinant, BLI) (human, UniProt O95166 1-117, L55V)
[14] = biological target: GABARAP K24Q/Y25H/Q59E/F60L (recombinant, BLI) (human, UniProt O95166 1-117, K24Q | Y25H | Q59E | F60L)
[15] = biological target: LC3B E62Q (recombinant, BLI) (human, UniProt Q9GZQ8 1-120, E62Q)
[16] = biological target: GABARAP L63I (recombinant, BLI) (human, UniProt O95166 1-117, L63I)
LC3B (recombinant, BLI) [17] = biological target: T3, LC3B (recombinant, BLI) (human, UniProt Q9GZQ8 1-120)
[18] = biological target: GABARAP (recombinant, BLI) (human, UniProt O95166 1-117)
[19] = biological target: T2, GABARAP-L2 (recombinant, BLI); remark: listed apart in the source
LC3C (recombinant, BLI) [20] = biological target: B1
LC3A (recombinant, BLI) [21] = biological target: T1, LC3A (recombinant, BLI); remark: listed apart in the source
LC3B (recombinant, BLI) [22] = biological target: T3, LC3B (recombinant, BLI); remark: listed apart in the source
-L1 (recombinant, BLI) = -L1 (recombinant, BLI) (human, UniProt Q9H0R8 1-117)
-L1 (recombinant, BLI), sequence (Q9H0R8 whole entry): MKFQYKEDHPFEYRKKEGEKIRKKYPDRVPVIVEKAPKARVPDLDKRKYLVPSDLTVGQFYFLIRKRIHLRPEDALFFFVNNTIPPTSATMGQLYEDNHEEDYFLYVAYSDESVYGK

## B1
[1]
  Kd: 10.8 µM

## B2
LC3A (recombinant, BLI) [2]
  Kd: 5.9 µM
[3]
  Kd: 0.53 µM
LC3C (recombinant, BLI) [4]
  Kd: 2.5 µM
[5]
  Kd: 3.2 µM
[6]
  Kd: 0.15 µM
[7]
  Kd: 0.42 µM
[8]
  Kd: 0.26 µM
[9]
  Kd: 0.36 µM
[10]
  Kd: 2.9 µM
[11]
  Kd: 5.6 µM
[12]
  Kd: 0.39 µM
[13]
  Kd: 0.13 µM
[14]
  Kd: 5.6 µM

## B3
LC3C (recombinant, BLI) [4]
  Kd: 2.7 µM

## B4
[6]
  Kd: 3.8 µM
[15]
  Kd: 160 µM
[12]
  Kd: 4.2 µM
[16]
  Kd: 2 µM

## B5
LC3B (recombinant, BLI) [17]
  Kd: 9.6 µM
[3]
  Kd: 3.1 µM
LC3C (recombinant, BLI) [4]
  Kd: 0.48 µM
[15]
  Kd: 4.5 µM
[11]
  Kd: 3.1 µM
[14]
  Kd: 3.3 µM

## B6
[18]
  Kd: 7.7 µM

## B7
[19]
  Kd: 7.6 µM
[18]
  Kd: 1.5 µM
LC3C (recombinant, BLI) [20]
  Kd: 6.9 µM

## B8
[5]
  Kd: 70.3 µM
[12]
  Kd: 12.5 µM
[13]
  Kd: 8.5 µM
[16]
  Kd: 3.8 µM

## B9
LC3A (recombinant, BLI) [21]
  Kd: 0.78 µM
LC3B (recombinant, BLI) [22]
  Kd: 1.1 µM
[19]
  Kd: 17.4 µM
[18]
  Kd: 1.7 µM
LC3C (recombinant, BLI) [20]
  Kd: 3 µM

## B10
[19]
  Kd: 19 µM
-L1 (recombinant, BLI)
  Kd: 2.9 µM
[18]
  Kd: 3.1 µM

## B11
LC3A (recombinant, BLI) [21]
  Kd: 3.9 µM
[19]
  Kd: 1.19 µM
-L1 (recombinant, BLI)
  Kd: 0.13 µM
[18]
  Kd: 0.17 µM
LC3C (recombinant, BLI) [20]
  Kd: 0.38 µM

## B12
LC3A (recombinant, BLI) [21]
  Kd: 4.6 µM
LC3B (recombinant, BLI) [22]
  Kd: 21.8 µM
[19]
  Kd: 17 µM
-L1 (recombinant, BLI)
  Kd: 0.91 µM
[18]
  Kd: 1.4 µM
LC3C (recombinant, BLI) [20]
  Kd: 2.4 µM

## B13
-L1 (recombinant, BLI)
  Kd: 0.9 µM
